From PMC9482650, “Quantitative fragmentomics allow affinity mapping of interactomes” (Nature Communications, 2022)

T1: PCLO, Q9Y6V0
T1 sequence (Q9Y6V0 4491-4600, limits assumed, looked up): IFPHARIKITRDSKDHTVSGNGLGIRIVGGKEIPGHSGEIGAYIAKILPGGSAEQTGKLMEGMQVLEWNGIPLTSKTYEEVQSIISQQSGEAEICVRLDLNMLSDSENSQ

T2: NHERF3_3, Q5T2W1
T2 sequence (Q5T2W1 238-333, limits assumed, looked up): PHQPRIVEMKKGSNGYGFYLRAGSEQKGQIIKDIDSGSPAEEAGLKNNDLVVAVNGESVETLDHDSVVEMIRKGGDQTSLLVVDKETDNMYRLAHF

T3: DFNB31_2, Q9P202
T3 sequence (Q9P202 274-371, limits assumed, looked up): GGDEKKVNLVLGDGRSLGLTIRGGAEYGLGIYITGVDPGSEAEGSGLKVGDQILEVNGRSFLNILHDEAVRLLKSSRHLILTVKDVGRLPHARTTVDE

T4: TIAM2, Q8IVF5
T4 sequence (Q8IVF5 885-986, limits assumed, looked up): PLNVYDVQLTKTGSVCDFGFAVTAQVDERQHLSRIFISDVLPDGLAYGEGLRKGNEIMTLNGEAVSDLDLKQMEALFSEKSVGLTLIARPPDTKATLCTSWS

T5: NHERF3_1, Q5T2W1
T5 sequence (Q5T2W1 4-100, limits assumed, looked up): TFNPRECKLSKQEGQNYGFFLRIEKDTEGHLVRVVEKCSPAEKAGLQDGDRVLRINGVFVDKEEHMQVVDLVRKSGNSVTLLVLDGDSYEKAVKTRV

T6: TJP3_3, O95049
T6 sequence (O95049 375-456, limits assumed, looked up): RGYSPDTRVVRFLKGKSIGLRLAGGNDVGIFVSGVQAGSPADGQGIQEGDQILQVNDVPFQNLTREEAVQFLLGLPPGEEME

T7: DLG3_3, Q92796
T7 sequence (Q92796 374-475, limits assumed, looked up): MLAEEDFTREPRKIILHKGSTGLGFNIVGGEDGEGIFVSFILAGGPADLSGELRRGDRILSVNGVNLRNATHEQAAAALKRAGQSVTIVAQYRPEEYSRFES

T8: SHANK1, Q9Y566
T8 sequence (Q9Y566 658-767, limits assumed, looked up): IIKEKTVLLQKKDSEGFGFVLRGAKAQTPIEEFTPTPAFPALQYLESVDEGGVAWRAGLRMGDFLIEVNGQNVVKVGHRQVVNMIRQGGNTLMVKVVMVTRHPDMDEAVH

T9: GRIP1_5, Q9Y3R0
T9 sequence (Q9Y3R0 568-668, limits assumed, looked up): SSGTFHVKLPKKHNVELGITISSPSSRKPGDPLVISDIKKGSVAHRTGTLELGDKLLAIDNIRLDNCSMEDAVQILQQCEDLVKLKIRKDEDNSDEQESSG

T10: LNX2_2, Q8N448
T10 sequence (Q8N448 334-432, limits assumed, looked up): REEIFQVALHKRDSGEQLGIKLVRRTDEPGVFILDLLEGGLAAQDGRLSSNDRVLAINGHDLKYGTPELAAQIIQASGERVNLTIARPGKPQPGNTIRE

T11: MPP2, Q14168
T11 sequence (Q14168 180-250, limits assumed, looked up): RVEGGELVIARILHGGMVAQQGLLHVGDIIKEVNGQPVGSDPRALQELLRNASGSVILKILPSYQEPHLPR


Assays:
Test in all cases: holdup assay
Design in all cases: key: below the threshold = too weak to quantify, mostly under pKd 3.1 to 4
Conditions in all cases: plain residues with an end cap or a label only (N-terminal biotin on a linker: ado-ado)
PCLO, Q9Y6V0 = molecular target: T1, PCLO, Q9Y6V0
PTPN3, P26045 = molecular target: PTPN3, P26045
PTPN3, P26045, sequence (P26045 505-587): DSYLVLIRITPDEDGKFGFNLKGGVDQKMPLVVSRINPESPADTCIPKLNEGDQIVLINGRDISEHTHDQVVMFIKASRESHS

NHERF3_3, Q5T2W1 = molecular target: T2, NHERF3_3, Q5T2W1
TJP1_3, Q07157 = molecular target: TJP1_3, Q07157
TJP1_3, Q07157, sequence (Q07157 416-512): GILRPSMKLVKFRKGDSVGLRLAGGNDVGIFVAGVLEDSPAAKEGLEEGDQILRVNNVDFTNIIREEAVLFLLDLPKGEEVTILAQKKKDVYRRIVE

DFNB31_2, Q9P202 = molecular target: T3, DFNB31_2, Q9P202
DLG4_1, P78352 = molecular target: DLG4_1, P78352
DLG4_1, P78352, sequence (P78352 62-152): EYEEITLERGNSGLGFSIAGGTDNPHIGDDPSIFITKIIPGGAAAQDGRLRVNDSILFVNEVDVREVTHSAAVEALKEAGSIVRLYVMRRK

Inadl_8, Q8NI35 = molecular target: Inadl_8, Q8NI35
Inadl_8, Q8NI35, sequence (Q8NI35 1425-1530): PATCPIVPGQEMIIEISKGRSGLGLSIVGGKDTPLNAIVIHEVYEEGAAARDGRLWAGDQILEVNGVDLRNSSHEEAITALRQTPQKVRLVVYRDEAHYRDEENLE

TIAM2, Q8IVF5 = molecular target: T4, TIAM2, Q8IVF5
Inadl_6, Q8NI35 = molecular target: Inadl_6, Q8NI35
Inadl_6, Q8NI35, sequence (Q8NI35 1058-1167): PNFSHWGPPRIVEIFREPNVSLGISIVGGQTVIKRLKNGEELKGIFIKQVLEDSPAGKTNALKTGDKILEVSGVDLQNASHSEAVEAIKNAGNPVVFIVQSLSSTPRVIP

NHERF4_1, Q86UT5-2 = molecular target: NHERF4_1, Q86UT5-2
NHERF4_1, Q86UT5-2, sequence (Q86UT5 other isoform, or with tags, fused parts or gaps): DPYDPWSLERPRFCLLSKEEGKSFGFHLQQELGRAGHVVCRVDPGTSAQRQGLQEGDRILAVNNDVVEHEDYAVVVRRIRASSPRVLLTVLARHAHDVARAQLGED

NHERF3_1, Q5T2W1 = molecular target: T5, NHERF3_1, Q5T2W1
DLG4_3, P78352 = molecular target: DLG4_3, P78352
DLG4_3, P78352, sequence (P78352 306-403): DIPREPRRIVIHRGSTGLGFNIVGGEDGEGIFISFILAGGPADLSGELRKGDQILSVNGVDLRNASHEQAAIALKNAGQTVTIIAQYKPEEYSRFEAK

GRID2IP_1, A4D2P6 = molecular target: GRID2IP_1, A4D2P6
GRID2IP_1, A4D2P6, sequence (A4D2P6 1-87): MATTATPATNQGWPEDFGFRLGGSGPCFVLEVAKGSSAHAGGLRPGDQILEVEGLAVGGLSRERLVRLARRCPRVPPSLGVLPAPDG

TJP3_3, O95049 = molecular target: T6, TJP3_3, O95049
DLG1_3, Q12959 = molecular target: DLG1_3, Q12959
DLG1_3, Q12959, sequence (Q12959 457-571): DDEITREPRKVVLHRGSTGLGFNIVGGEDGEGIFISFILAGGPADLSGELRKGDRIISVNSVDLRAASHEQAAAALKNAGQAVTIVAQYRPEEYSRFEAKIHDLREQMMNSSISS

NOS1, P29475 = molecular target: NOS1, P29475
NOS1, P29475, sequence (P29475 9-101): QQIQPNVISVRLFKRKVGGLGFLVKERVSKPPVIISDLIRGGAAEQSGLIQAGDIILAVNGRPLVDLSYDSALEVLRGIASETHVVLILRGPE

GORASP1, Q9BQQ3 = molecular target: GORASP1, Q9BQQ3
GORASP1, Q9BQQ3, sequence (Q9BQQ3 1-208): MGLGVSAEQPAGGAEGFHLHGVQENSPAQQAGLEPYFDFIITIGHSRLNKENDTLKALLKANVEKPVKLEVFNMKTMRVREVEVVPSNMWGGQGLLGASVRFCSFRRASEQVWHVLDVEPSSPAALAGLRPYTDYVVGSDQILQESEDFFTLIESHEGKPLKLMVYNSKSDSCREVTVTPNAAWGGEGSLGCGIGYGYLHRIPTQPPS

DLG3_3, Q92796 = molecular target: T7, DLG3_3, Q92796
IL16_1, Q14005 = molecular target: IL16_1, Q14005
IL16_1, Q14005, sequence (Q14005 210-306): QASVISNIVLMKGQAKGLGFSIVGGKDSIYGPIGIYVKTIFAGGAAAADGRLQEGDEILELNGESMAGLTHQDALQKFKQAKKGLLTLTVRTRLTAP

SHANK1, Q9Y566 = molecular target: T8, SHANK1, Q9Y566
PICK1, Q9NRD5 = molecular target: PICK1, Q9NRD5
PICK1, Q9NRD5, sequence (Q9NRD5 17-115): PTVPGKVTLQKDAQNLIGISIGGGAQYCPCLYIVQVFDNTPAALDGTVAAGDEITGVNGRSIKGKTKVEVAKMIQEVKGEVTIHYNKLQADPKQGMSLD

FRMPD2_2, Q68DX3 = molecular target: FRMPD2_2, Q68DX3
FRMPD2_2, Q68DX3, sequence (Q68DX3 944-1038): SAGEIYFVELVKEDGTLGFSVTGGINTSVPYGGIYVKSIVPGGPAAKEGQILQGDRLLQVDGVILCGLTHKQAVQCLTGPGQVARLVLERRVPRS

GRIP1_5, Q9Y3R0 = molecular target: T9, GRIP1_5, Q9Y3R0
LNX2_2, Q8N448 = molecular target: T10, LNX2_2, Q8N448
MAGI2_6, Q86UL8 = molecular target: MAGI2_6, Q86UL8
MAGI2_6, Q86UL8, sequence (Q86UL8 1141-1229): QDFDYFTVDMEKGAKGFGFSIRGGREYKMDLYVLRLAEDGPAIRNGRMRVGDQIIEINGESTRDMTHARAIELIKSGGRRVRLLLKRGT

MPP2, Q14168 = molecular target: T11, MPP2, Q14168
MAGI2_2, Q86UL8 = molecular target: MAGI2_2, Q86UL8
MAGI2_2, Q86UL8, sequence (Q86UL8 410-522): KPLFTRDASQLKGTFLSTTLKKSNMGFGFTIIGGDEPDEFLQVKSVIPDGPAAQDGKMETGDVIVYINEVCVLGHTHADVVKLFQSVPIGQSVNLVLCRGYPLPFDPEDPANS

| pKd (PCLO, Q9Y6V0) | pKd (PTPN3, P26045) | pKd (NHERF3_3, Q5T2W1) | pKd (TJP1_3, Q07157) | pKd (DFNB31_2, Q9P202) | pKd (DLG4_1, P78352) | pKd (Inadl_8, Q8NI35) | pKd (TIAM2, Q8IVF5) | pKd (Inadl_6, Q8NI35) | pKd (NHERF4_1, Q86UT5-2) | pKd (NHERF3_1, Q5T2W1) | pKd (DLG4_3, P78352) | pKd (GRID2IP_1, A4D2P6) | pKd (TJP3_3, O95049) | pKd (DLG1_3, Q12959) | pKd (NOS1, P29475) | pKd (GORASP1, Q9BQQ3) | pKd (DLG3_3, Q92796) | pKd (IL16_1, Q14005) | pKd (SHANK1, Q9Y566) | Binder | further results |
| --- | --- | --- | --- | --- | --- | --- | --- | --- | --- | --- | --- | --- | --- | --- | --- | --- | --- | --- | --- | --- | --- |
| below the threshold | below the threshold | below the threshold | below the threshold | below the threshold | below the threshold | 3.87 | below the threshold | below the threshold | 3.57 | 4.59 | below the threshold | below the threshold | 4.28 | below the threshold | 4.21 | 3.75 | below the threshold | below the threshold | below the threshold | HSGYRLNDYV [CLDN14, O95500] | pKd (PICK1, Q9NRD5): 4.13; pKd (FRMPD2_2, Q68DX3): below the threshold; pKd (GRIP1_5, Q9Y3R0): below the threshold; pKd (LNX2_2, Q8N448): 4.56; pKd (MAGI2_6, Q86UL8): 4.12; pKd (MPP2, Q14168): below the threshold; pKd (MAGI2_2, Q86UL8): below the threshold |
| below the threshold | 4.44 | below the threshold | below the threshold | below the threshold | 4.71 | 3.76 | 3.96 | below the threshold | below the threshold | below the threshold | below the threshold | below the threshold | below the threshold | below the threshold | below the threshold | below the threshold | below the threshold | 4.05 | below the threshold | KKMPSIESDV [GRIN2A, Q12879] | pKd (PICK1, Q9NRD5): below the threshold; pKd (FRMPD2_2, Q68DX3): 3.78; pKd (GRIP1_5, Q9Y3R0): below the threshold; pKd (LNX2_2, Q8N448): below the threshold; pKd (MAGI2_6, Q86UL8): 4.91; pKd (MPP2, Q14168): below the threshold; pKd (MAGI2_2, Q86UL8): 4.05 |
| below the threshold | 4.41 | below the threshold | below the threshold | below the threshold | 4.75 | 3.72 | below the threshold | 3.55 | below the threshold | 3.64 | below the threshold | below the threshold | below the threshold | 3.97 | below the threshold | 3.67 | 3.85 | 4.1 | below the threshold | TACCHSETVV [TGFA, P01135] | pKd (PICK1, Q9NRD5): below the threshold; pKd (FRMPD2_2, Q68DX3): 4.1; pKd (GRIP1_5, Q9Y3R0): below the threshold; pKd (LNX2_2, Q8N448): 5.21; pKd (MAGI2_6, Q86UL8): 3.81; pKd (MPP2, Q14168): below the threshold; pKd (MAGI2_2, Q86UL8): 4.74 |
